From patent US20250270295A1 (ALBERT LUDWIGS UNIVERSITAET FREIBURG, published 2025)

B1: soluble gp34 ectodomain W65F, V5-His tagged (sgp34mtrp-V5-His) (receptor)
chain: SSSNAVEPTKKPLKLANYRATCEDRTRTLVTRLNTSHHSVVFQRYDIYSRYMRRMPPLCIITDAYKETTRQGGAAFACTRQNLTLYNLTVKDTGVYLLQDQYTGDVEAFYLIIHPRSFCRALETRRCFYPGPGRVVVTDSQEADRAIISDLKRQWSGKPIPNPLLGLDSTRTGHHHHHH
notes: signal peptide 1-23 left out; V5 and His tags are in the entry; Forms only monomers and dimers; also called sol gp34mtrp; gp34 1-179 W65F
B2: gp68.05 (antibody, V domains shown)
VH: QVKLEESGAELMKPGASVKISCTATGYTFSGYWIEWVKQRPGHGLEWIGEILPGSGGTNYNEKFKGKATFTADTSSNTAYMQLSSLTSEDSAVYYCARGIHYFGYYYFDYWGQGTTLTVSSAKTTPPSVY
VL: DIVLTQTPSSLSASLGDRVTISCRASQDISNYLNWYQLKPDGTVKLLIYYTSRLHSGVPSRFSGSGSGTDYSLTISNLEQEDIATYFCQQGNTLPPTFGGGTKLEIKRADAAPTVS
notes: mouse IgG1 hybridoma mAb; leader in entries; also called anti gp68 clone 68.05
B3: gp68.06 (antibody, V domains shown)
VH: QVKLEQSGAELMKPGASVKISCTATGYTFSGYWIEWVKQRPGHGLEWIGEILPGSGGTNYNEKFKGKATFTADTSSNTAYMQLSSLTSEDSAVYYCARGIHYFGYYYFDYWGQGTTLTVSSAKTTPPSVY
VL: DIVLTQSPSSLSASLGDRVTISCRASQDISNYLNWYQLKPDGTVKLLIYYTSRLHSGVPSRFSGSGSGTDYSLTINNLEQEDIATYFCQQGNTLPPTFGGGTKLEIKRADAAPTVS
notes: mouse IgG1 hybridoma mAb; leader in entries; also called anti gp68 clone 68.06
B4: gp34mtrp.01 (antibody, V domains shown)
VH: QVKLEESGAELVKPGASVKLSCTGSGFNIKDIYMDWVKQRPEQGLEWIGRIDPANGNSKYDPKFQGKATITVDTSSNTAYLQLSSLTSEDTAVYYCASYYGSSYNYWGQGTTLTVSS
VL: DIVITQTPPSVPVTPGESVSISCRSSKSLLHSNGNTYLYWFLQRPGQSPQLLIYRMSNLASGVPDRFSGSGSGTAFTLRISRVEAEDVGVYYCMQHLEYPLTFGAGTKLELKRADAAPTVS
notes: mouse IgG1 hybridoma mAb; leader in entries; also called anti gp34 clone mtrp.01
B5: gp34mtrp.02 (antibody, V domains shown)
VH: QVKLEQSGAELVKPGASVKLSCTGSGFNIKDIYMDWVKQRPEQGLEWIGRIDPANGNSKYDPKFQGKATITVDTSSNTAYLQLSSLTSEDTAVYYCASYYGSSYNYWGQGTTLTVSS
VL: DIVITQTPPSVPVTPGESVSISCRSSKSLLHSNGNTYLYWFLQRPGQSPQLLIYRMSNLASGVPDRFSGSGSGTAFTLRISRVEAEDVGVYYCMQHLEYPLTFGAGTKLELKRADAAPTVS
notes: mouse IgG1 hybridoma mAb; leader in entries; also called anti gp34 clone mtrp.02
B6: gp68.01 (antibody, V domains shown)
VH: EVKLLESGPELVKPGSSVKISCKASGYSFADHIILWVKQSHGKSLEWIGNINPYSGNTIYNLNFKGKATLTVDKSSSTAYMQLNSLTSEDSAVYYCARIEGYYSMDYWGQGTSVTVSS
VL: DIVMTQTPLSLPVSLGDQASISCRSSQSIVHSNGNTYLEWYLQKPGQSPKVLIYKVSKRFSGVPDRFSGSGSGTDFTLKISRVEAEDMGVYYCFQGSHVPLTFGAGTKLELK
notes: mouse IgG1 hybridoma mAb; leader in entries
B7: gp68.02 (antibody, V domains shown)
VH: EVKLLQSGPELVKPGSSVKISCKASGYSFADHIILWVKQSHGKSLEWIGNINPYSGNTIYNLNFKGKATLTVDKSSSTAYMQLNSLTSEDSAVYYCARIEGYYSMDYWGQGTSVTVSS
VL: DIVLTQTPLSLPVSLGDQASISCRSSQSIVHSNGNTYLEWYLQKPGQSPKVLIYKVSKRFSGVPDRFSGSGSGTDFTLKISRVEAEDMGVYYCFQGSHVPLTFGAGTKLELK
notes: as for B6

Columns and labels:
[1] = molecular target: T1, C-reactive protein (human, UniProt P02741 19-224); assay: ELISA, CRP beside IgG1 and IgA
T1 construct: also called CRP; human CRP
T1 sequence: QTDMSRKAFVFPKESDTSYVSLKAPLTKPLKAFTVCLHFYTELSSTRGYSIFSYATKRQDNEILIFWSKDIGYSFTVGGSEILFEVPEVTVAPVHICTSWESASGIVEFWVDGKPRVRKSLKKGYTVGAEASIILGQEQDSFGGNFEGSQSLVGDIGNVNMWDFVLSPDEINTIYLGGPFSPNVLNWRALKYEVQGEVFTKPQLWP

[2] = molecular target: T2, gp68_ECD_1 (1-201 aa) (HCMV strain AD169, UniProt P16739 24-201); assay: ELISA, coated supernatant
T2 construct: signal peptide 1-23 left out

[3] = molecular target: gp68_ECD_4b (1-152) (HCMV strain AD169, UniProt P16739 24-152); assay: ELISA, coated supernatant
[4] = molecular target: T3, gp68_ECD_7 (gp68 ΔO-glyc, 1-293 lacking 27-67aa) (HCMV strain AD169, UniProt P16739 65-292); assay: ELISA, coated supernatant
T3 sequence: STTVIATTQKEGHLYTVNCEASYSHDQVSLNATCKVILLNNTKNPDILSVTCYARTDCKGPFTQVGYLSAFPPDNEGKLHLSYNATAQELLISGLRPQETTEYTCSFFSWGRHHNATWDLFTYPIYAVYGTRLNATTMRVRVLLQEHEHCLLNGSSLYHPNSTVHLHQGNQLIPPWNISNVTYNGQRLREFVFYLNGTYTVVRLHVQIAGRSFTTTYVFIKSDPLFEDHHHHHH

[5] = molecular target: T4, gp68_ECD_4a* (1-144aa) (HCMV strain AD169, UniProt P16739 24-144); assay: ELISA, coated supernatant
T4 construct: Shortened by a stop codon that arose in cloning, so a C-terminal tag is doubtful
T4 sequence: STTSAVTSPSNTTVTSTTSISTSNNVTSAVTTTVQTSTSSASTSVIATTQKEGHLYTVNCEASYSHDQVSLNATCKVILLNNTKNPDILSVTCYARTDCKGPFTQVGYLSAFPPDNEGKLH

[6] = molecular target: T5, gp68_ECD_wt (HCMV strain AD169, UniProt P16739 24-292); assay: ELISA, coated supernatant
T5 construct: Called 'same antigen as used for immunization'; used as HEK293T supernatant; also called gp68wt extracellular domain

[7] = molecular target: T6, soluble gp68 ectodomain, V5-His tagged (sgp68-V5-His) (HCMV strain AD169, UniProt P16739 24-292); assay: ELISA
T6 construct: V5 and His tags are in the entry; also called sol gp68; sgp68wt

[8] = molecular target: T7, native vFcγR gp34 of HCMV AD169 (infected cells, virions) (HCMV strain AD169, UniProt P16809 24-234); assay: IP from infected cells; Fc-mediated background per the filing
T7 construct: also called native HCMV gp34 protein; gp34/RL11
T7 sequence (looked up): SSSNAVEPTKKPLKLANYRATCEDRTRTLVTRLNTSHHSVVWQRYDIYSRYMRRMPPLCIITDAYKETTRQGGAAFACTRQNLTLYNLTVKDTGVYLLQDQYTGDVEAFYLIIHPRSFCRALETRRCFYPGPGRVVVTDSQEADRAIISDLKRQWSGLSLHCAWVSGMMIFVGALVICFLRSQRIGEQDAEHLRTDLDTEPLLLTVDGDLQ
Protocol: Finally, anti-vFcγR gp68 mAbs were used for immunoprecipitation experiments. MRC5 fibroblasts were infected with HCMV AD169wt strain or a virus mutant lacking vFcγR gp68 (Δgp68) for 4 days with MOI 3. Infected cells were metabolically labeled with ³⁵S for 2 hours at 37° C., washed and lysed using NP40-lysis buffer. Lysates were incubated with indicated mAbs or human IgG Fc-fragment to pulldown vFcγR gp68 specifically or both HCMV-encoded vFcγRs gp34, gp68 using human IgG-Fc-fragment to precipitated Fc-binding proteins. Samples were deglycosylated by EndoH and separated on SDS-page gradient gel.
MRC5 fibroblast were infected with MOI 2. Four days post infection cells were metabolically labelled and following lysates were incubated with indicated anti-gp68 mAbs or human IgG-Fc-fragment for precipitation of vFcγR gp68.

[9] = molecular target: T8, soluble human ICOSL ectodomain, V5-His tagged (sICOSL-V5His) (human, UniProt O75144 19-256); assay: western blot
T8 construct: extracellular domain; Control protein with the same tags as the vFcγRs
T8 sequence: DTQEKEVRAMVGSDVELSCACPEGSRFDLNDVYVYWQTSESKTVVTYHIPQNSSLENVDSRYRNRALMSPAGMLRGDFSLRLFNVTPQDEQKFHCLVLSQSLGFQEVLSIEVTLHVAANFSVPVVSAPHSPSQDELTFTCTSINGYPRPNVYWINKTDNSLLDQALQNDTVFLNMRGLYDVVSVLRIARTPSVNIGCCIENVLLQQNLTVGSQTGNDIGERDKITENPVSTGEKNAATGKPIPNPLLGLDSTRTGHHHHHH

[10] = molecular target: T9, soluble gp34 wild type ectodomain, V5-His tagged (sgp34wt-V5-His) (HCMV strain AD169); assay: sgp34wt pre-incubated with mAb, ELISA on CRP
T9 construct: Entry holds signal peptide 1-23 (left out), ectodomain, V5 tag and His tag; Forms monomers, dimers and higher oligomers; also called sol gp34 wt; gp34 1-179
T9 chain: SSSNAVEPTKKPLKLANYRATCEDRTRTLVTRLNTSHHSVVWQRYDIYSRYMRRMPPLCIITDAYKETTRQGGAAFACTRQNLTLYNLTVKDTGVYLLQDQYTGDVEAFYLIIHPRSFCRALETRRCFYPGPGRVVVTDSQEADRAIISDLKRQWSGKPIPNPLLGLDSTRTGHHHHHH
Description: In addition, binding of sgp34wt to immobilized CRP in absence of any mAb is depicted.

[11] = molecular target: B1; assay: ELISA mtrp
[12] = molecular target: T9, soluble gp34 wild type ectodomain, …; assay: sgp34wt pre-incubated with mAb, ELISA on FcRn
Protocol: Furthermore, the gp34wt and FcRn interaction was investigated whereby various anti-gp34 mAbs were analyzed and their potential to block this interaction was identified. Experiments were performed as described before for IgG-blocking ELISA, but this time using immobilized FcRn as a novel gp34-ligand.
In addition, binding of sgp34wt to immobilized FcRn in absence of any mAb is depicted.

[13] = molecular target: T10, gp34mtrp (W65F) on stably transduced HeLa cells (HCMV strain AD169, UniProt P16809 24-234); assay: flow cytometry, HeLa, 1 µg/ml
T10 construct: whole, on cells; also called plasma membrane exposed gp34mtrp
T10 sequence: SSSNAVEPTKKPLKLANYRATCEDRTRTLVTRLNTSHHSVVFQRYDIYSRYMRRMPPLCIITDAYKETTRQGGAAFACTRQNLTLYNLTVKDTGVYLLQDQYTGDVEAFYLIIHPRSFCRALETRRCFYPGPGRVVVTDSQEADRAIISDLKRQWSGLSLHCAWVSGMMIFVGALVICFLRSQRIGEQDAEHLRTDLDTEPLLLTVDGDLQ

[14] = molecular target: T11, gp34wt on stably transduced HeLa cells (HCMV strain AD169, UniProt P16809 24-234); assay: flow cytometry, HeLa, 1 µg/ml
T11 construct: whole, on cells; also called plasma membrane exposed gp34wt
T11 sequence: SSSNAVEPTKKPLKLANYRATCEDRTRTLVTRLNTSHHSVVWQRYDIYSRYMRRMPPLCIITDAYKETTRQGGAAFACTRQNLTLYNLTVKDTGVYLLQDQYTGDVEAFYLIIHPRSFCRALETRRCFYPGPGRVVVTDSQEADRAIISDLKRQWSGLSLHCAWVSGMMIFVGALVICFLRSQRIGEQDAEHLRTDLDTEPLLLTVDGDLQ

[15] = molecular target: T9, soluble gp34 wild type ectodomain, …; assay: blocking of sgp34wt binding to immobilized human IgG, ELISA
Protocol: FIG. 44: IgG blocking ability by anti-gp34mtrp mAbs. vFcγR gp34 is an HCMV encoded IgG-Fc-binding. Anti-gp34mtrp-specific mAbs (in titration) were pre-incubated with recombinant, sgp34wt (constant amount 1 μg/ml) and added to IgG-immobilized ELISA plates. […] Dose-dependent potential of mAbs used for blocking is indicated. Effect by non-specific mouse IgG isotype IgG1 is shown. In addition, binding of sgp34wt to immobilized IgG in absence of any mAb is depicted.
To test if anti-gp34wt specific mAbs can interfere with IgG-binding ability of gp34 and human IgG. Therefore, recombinant, sgp34wt was pre-incubated with indicated anti-gp34wt specific mAbs, mouse IgG isotype or PBS only. Next, antibody bound sgp34wt was incubated on IgG-immobilized ELISA plates.
Anti-gp34wt-specific mAbs (in titration) were pre-incubated with recombinant, sgp34wt (constant amount 1 μg/ml) and added to IgG-immobilized ELISA plates. […] Dose-dependent potential of mAbs used for blocking is indicated. […] In addition, binding of sgp34wt to immobilized IgG in absence of any mAb is depicted.

[16] = molecular target: T12, gp68 on stably transduced HeLa cells (HCMV strain AD169, UniProt P16739 24-345); assay: flow cytometry, HeLa, 1 µg/ml
T12 construct: whole, on cells; also called plasma membrane exposed gp68
T12 sequence: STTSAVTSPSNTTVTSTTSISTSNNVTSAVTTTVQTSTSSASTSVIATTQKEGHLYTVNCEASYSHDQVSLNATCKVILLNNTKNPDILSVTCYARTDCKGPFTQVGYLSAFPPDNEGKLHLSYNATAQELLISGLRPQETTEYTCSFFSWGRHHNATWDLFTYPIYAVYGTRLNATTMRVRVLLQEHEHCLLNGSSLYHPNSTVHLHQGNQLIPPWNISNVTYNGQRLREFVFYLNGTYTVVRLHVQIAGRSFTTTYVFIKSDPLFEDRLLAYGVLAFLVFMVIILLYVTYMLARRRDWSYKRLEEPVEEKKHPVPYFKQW

Row | Binder | binding result [1] | binding result [2] | binding result [3] | binding result [4] | binding result [5] | binding result [6] | binding result [7] | binding result [8] | binding result [9] | percent blocking of gp34-CRP-binding [10] [%] | binding result [11] | percent blocking of gp34 FcRn-binding [12] [%] | binding result [13] | binding result [14] | IC50 [15] [mg/L] | binding result [16]
1 | B1 | binds |  |  |  |  |  |  |  |  |  |  |  |  |  |  | 
2 | B2 |  | no binding (tested: 1 µg/ml) | no binding (tested: 1 µg/ml) | binds | no binding (tested: 1 µg/ml) | binds | binds | binds | no binding |  |  |  |  |  |  | 
3 | B3 |  | no binding (tested: 1 µg/ml) | no binding (tested: 1 µg/ml) | binds | no binding (tested: 1 µg/ml) | binds | binds | binds | no binding |  |  |  |  |  |  | 
4 | B4 |  |  |  |  |  |  |  |  |  | ~50 | binds | ≤ 50 | binds | binds | 0.239 | 
5 | B5 |  |  |  |  |  |  |  |  |  | ~50 | binds | ≤ 50 | binds | binds | 0.33 | 
6 | B6 |  | binds |  | binds |  | binds | binds |  | no binding |  |  |  |  |  |  | binds
7 | B7 |  | binds |  | binds |  | binds | binds |  | no binding |  |  |  |  |  |  | binds
